From patent US20140112919A1, “INTERLEUKIN-10 ANTIBODIES” (MERCK SHARP & DOHME CORP., published 2014)

Biological target: humanized anti-human IL-10 antibody SCH 708980 (12G8) (Homo sapiens)
Assay: competitive ECLA (IGEN): unlabeled IL-10 titrated against hIL-10-biotin for binding to humanized 12G8-1
Description: 96 well Polypropylene plates (Costar, Cat. No. 3365, Fisher Sci. Cat. No. 07200697); assay buffer of 0.1% BSA, 0.05% tween 20, PBS pH 7.5; paramagnetic beads (Streptavidin-Dynabeads, Igen, Inc., Cat. No. 110029); recombinant human IL-10 dimer (hIL-10-dimer); recombinant human IL-10-monomer (hIL-10-mono); recombinant mouse IL-10 (mIL-10); recombinant cyno IL-10 (cyno IL-10); and recombinant hIL-10Ra (hIL-10Ra): FLAG-tagged protein. Ori-Tag labeled anti-FLAG M2 monoclonal antibodies were prepared using Ori-Tag-NHS ester (Igen, Inc. Cat. No. 110034) according to manufacturer's protocol (OriTag label: IgG challenge ratio 8:1). Anti-Flag M2 monoclonal antibodies were purchased from Sigma (Cat. No. F3165). Ori-Tag labeled anti hIgG 1A2 monoclonal antibodies were prepared as above using rat anti hIgG monoclonal antibodies. Ori-Tag labeled anti rat IgG antibodies were prepared as above from polyclonal Goat anti rat IgG (H+L) antibodies (Jackson Immunoresearch Laboratories, Inc. PA, Cat. No. 112-005-143). Biotinylated recombinant human IL-10
1/3 serial dilutions in 50 microliters of the assay buffer were made in 96-well microtiter plate for all unlabeled IL-10 preparations (mIL-10, cyno IL-10, hIL-10 dimer, hIL-10 mono) starting with 3 μg/ml in the first well. […] Percent inhibition of the signal by unlabeled IL-10 preparations was calculated relative to the control samples. […]

Sequence of humanized anti-human IL-10 antibody SCH 708980 (12G8) (Homo sapiens) (VH, as listed by the source, chain 1 of 2): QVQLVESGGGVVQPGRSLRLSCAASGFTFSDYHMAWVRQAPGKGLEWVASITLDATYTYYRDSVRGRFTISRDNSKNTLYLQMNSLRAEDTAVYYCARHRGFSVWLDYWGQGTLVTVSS
Sequence of humanized anti-human IL-10 antibody SCH 708980 (12G8) (Homo sapiens) (VL, as listed by the source, chain 2 of 2): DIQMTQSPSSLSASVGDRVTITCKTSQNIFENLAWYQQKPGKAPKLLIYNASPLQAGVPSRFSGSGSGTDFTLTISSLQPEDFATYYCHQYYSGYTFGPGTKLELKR

B1: recombinant human IL-10-monomer (ligand)
chain: SPGQGTQSENSCTHFPGNLPNMLRDLRDAFSRVKTFFQMKDQLDNLLLKESLLEDFKGYLGCQALSEMIQFYLEEVMPQAENQDPDIKAHVNSLGENLKTLRLRLRRCHRFLPCENKSKAVEQVKNAFNKLQEKGIYKAMSEFDIFINYIEAYMTMKIRN
- IC50: 5.8 nM
